In a protein production outcome set (Wang et al. 2014):

experiment: label from the status in PepcDB records

Sequence	protein production
GHMSPGERFLDWLKRLQGQKAWTAARAAFRRSLAFPPGAYPRAMPYVEPFLAKGDWRQEEREAHYLVAALYALKDGDHQVGRTLARALWEKAQGSASVEKRFLALLEADRDQIAFRLRQAVALVEGGIDFARLLDDLLRWFSPERHVQARWAREYYGAGASEEEKKKEVEA	not failed
GIKDSPVNKVEPNDTLEKVFVSVTKYPDEKRLKGLSKQLDWSVRKIQCWFRHRRNQDKP	not failed
GKKIKYDTPLSTLVIAPPGTGKTSAIIIPNLLSIPNSQVVIDVKGEICSLTAGYRQKKLLNQVFIFNPFGEDSNFHFNPFNLERMSKLGFAEKTAIVRQVGSTIFPKPKDEKDSHWRETAKTFFEFAAMHNIEKYGYTTLYEIYRFPKKDWTDELEDKYFDEKEKREELGEEVNTFRLLLRQIAENETLHDNIRDDARRFLGTPANEFGSVLSTFSTKMSIFGDLRVKELTDQNSFMPERLREDNITLYIKCLEKDIPSLSPIIRILLETIVKELMSRESTDPKERIYLELDEVMRFGELDFMIELPSISRSYNLPNIFAAQSYAQIRKHYSQEDLEIMLDTVAYQVVFRANRQQAAEDISKEVGDFTAHKKTTSSQDIKILQSYSTSEEAKRLVTAQDILNIPKDKVLILATGHKATPILAQANFYFKDRTERQKTKIKKE	failed
GKRSTMLLRAITPQDWDAILQIQEECYSQLDPEPLHVLQSKWHVSPQSCFVFEVNESVVGYCLAHPWTTNMPPALYEPITHLPKADTLYLHDIAISAKAQGLGAGSKALMRLKQLADRFNLGSLSLVAVQGADSYWRKMGFTPKAIDKCLGSYTDDAMYMIYKL	failed
GKTFPDVPADHWGIDSINYLVEKGAVKGNDKGMFEPGKELTRAEAATMMAQILNLPIDKDAKPSFADSQGQWYTPFIAAVEKAGVIKGTGNGFEPNGKIDRVSMASLLVEAYKLDTKVNGTPATKFKDLETLNWGKEKANILVELGISVGTGDQWEPKKTVTKAEAAQFIAKTDKQFGTE	not failed
GMINAHNHLPMIAFRGLGEEGISNRLFAYFFPLEAQKLSRELIYNATKLGAIDLAQSGVTTYADMYYHMDEMAKATKEVGLRAVLGETVIKFPVVDAKQPYGGIQYAKPFIEEYQNDPLITPAYAPHAVYTVSKEKLQEINQLSEDYDVPVLIHVAEFPNEEARIKDPTKATSPVEYLEEIGVLDERMVIAHGIHLSQHDQALLKQADAGVVYNPMANVKGATGIAPAWDMFRADMRVGLGTDGPMSSNQVDLWRTLSYAANMQRLKHSDRTIMIPEQVIEMATIGGAKALHMEDE	failed
GNLEEMNIDPDNATQTHPKLLLTQICMNAFKRGTDGMYATKKVIQADGESADQYYKWTRGSFGYYDNLRNVQKMGEEAERVNAPVYTALTKFFRAYYFYELTLRFGDIPYSQALKGEKEEIYTPEYDAQEDVFAGILQELREADEILANDASVIDGDIIYNGNSTQWRKLINSFRLKVLMTLSNHTTVGNINIASEFKNIATNSPLMNSLADNGQLVYLDQQGNRYPQFNAQWSGYYMDDTFIQRMRERRDPRLFIFSAQTNKGKTEGKPIDDFSSYEGGDPAAPYSDAIIKVSEGTISPINDRFRTDPIVEPTMLMGYAELQQILAEAVVRGWISGNAQTYYEKGIRASFSFYETHAKDYAGYLNENAVAQYLKEPLVDFTQASGTEEQIERIIMQKYLVTFYQGNWDSFYEQLRTGYPDFRRPAGTEIPKRWMYPQGEYDNNGTNVETAITRQFGAGNDKINQATWWQKKS	not failed
GPGSMSLKVNILGHEFSNPFMNAAGVLCTTEEDLRRMTESESGSLIGKSCTLAPRTGNPEPRYFGLPLGSINSMGLPNLGVDFYLSYAAQTHDYSRKPLFLSMSGLSVEESVEMVKKLAPITKEKGTILELNLSCPNVPGKPQVGYDFDTTRTYLQKVSEAYGLPFGVKMPPYFDIAHFDMAAAVLNDFPLVKFITCVNSIGNGLVIDPANETVVIKPKQGFGGLGGKYVLPTALANVNAFFRRCPDKLVFGCGGVYSGEEAFLHILAGASMVQVGTALHDEGPIIFARLNKELQEIMTNKGYKTLDEFRGRVKTMD	not failed
GPLQVSNARLLFPISMPEDEGVVRLVVNNTDESDLQVAVVSLPSFVSLDDRAFRLQAREPRELNLSLAVPRNMPPGMKDEPLVLEVTSPETGKKAVDSVMVSLPLVDNFPALTAAQTGVMELSTYLDMGQLDGETTKAAIEIRNVGAGPLRLHSVTTRNPALTAVPDRTEIKPGGSTLLRIAVDPQVMKAEGWQSIAADISIICNDPQAPLRRIKVKAEL	not failed
GPYATEVELREMVDIAQEHGIVEIEERRMIQSVFDLASTTVRQVMVPRPEMIWIESGKTAGQATALCVRSGHSRIPVIGENVDDIIGIVYLKDLVQKTYYATDGGKSVLVDEVMREATFVPDSKSLDALLQEMQEDHKHIAILVDEYGGVAGLISIEDILEEIVGEIADEYDAREVAPIEKIGDRTYRVVSRL	not failed
GQEYRALPGADTGRPDLDRSYALVYPAPRPKALLLLVPGLLGGSTNFALLAERLRAMAPGLEVWAWERRANGLEDRRGFLREDPVAYYRALALPDLTPLRAWGLEVHLKDLDLAVEAARARAPVVLAGHSLGAALAGLYALLHGEKLSGLVLLDGAPGVVPLAEEAFYEGADLPFGRLVGYRAFLRGEGSPAVELLGLGPKALALAEAEAFLAAKRPEEDLPFGPYRATREALALLRVDDDYSLFPVFSVSAGRAWAREGFSLLGLLQGRLVRTVRGPRAGPIAWRDTGEATDPRAFLRAFALPETGFSEWYFPYRLLLEVGGYPYVLRGLKPRALPYPVLALGAGRGLYPRAEDFRLGELFPGTEARAQVLPGLTHLDLLTEREGRTAGLLLRYLQDL	failed
GQSEDGLSVPKPLGIVEPWQMWLQRWVPGQPATELLITRPDLPEKIAALAHKIHSHSVPTTKTHTIATELQILGDRLREFSHQQPQWQTQIQHFIAQSEQLGEVLNKYPRPTTTIHRDFYPDQILVDGNHLWLVDLDLYCKGDPAVDLGNFIAHMTEYSLRTWG	failed
GRDYVLSANLSLGMNKMKVDKLNGTDNVIWDQNNRWKSSYNDYCLKVGDQVGLIYGFVYDGLYSMDEFYFDPTNNLQAVPWGSTAAENGTSKDAPIMDADGVEHPKTIINQISGDSNSGIATLPGKVKFKDLNGDGYITEDDRTVIGNTNPKVQGGFGLSGQWKGFDFAMNFNFMLDFDVNNATAYQLSSSESNKNKFYNVLSTFADKGWRYTRDGDGECLYKCYYIDGSLDMYRELNEGRTLWNPTDVTKKITHSYFIEDGSFLRCQDLTVGYTLPGNLTSKWGISKARFYVSASNLFIITGYSGYDPEVDIQTGLTCGMDYNRYPRSRSFVLGTNITF	failed
GRGTVTNEVRVAVEVPALPAAIASRLEVPAGAGGVYVERLRRLDGLPLSLDTSYLTVDVGRAVLAGDLRDRDVFGLIEEAAGARLGRAEVAVHAVNADPGTARLLGIGPGAAVFALERLTRLADGRPVDAESIRIRADRMA	failed
GSEEEEIPFRCFICRQAFQNPVVTKCRHYFCESCALEHFRATPRCYICDQPTGGIFNPAKELMAKLQK	not failed
GSGKNLIMIQVEALQGFVVNKSINGKEITPNLNKWINKSLYFDNYFYQVAQGNTSDAEFMSLNSLYPAQSGAAYYTYAGNTFNSIPKDLGDKGYYTAALHGYNEGFWNRNVMYKSEKFDDFYGQTSYKNDEVVGMGLSDESFLNQSLAKMKTFKQPYFSFLITLSSHYPFNDTAGYEKYTMNKLDVGEYKDTLLGNYFEGIHYTDEQLGKFLDKLDKEGLTKNSIIVLYGDHFAIPKENINQLYSFEGIKDPTDLTWYEYQKVPMFIHFPDDEHKGVNHTYSGQMDIYPTIANLYNISNNYMFGEDILNVKDGDSTNVTFRNGSFTDGK	failed
GSSGSSGMGNSKSGALSKEILEELQLNTKFSEEELCSWYQSFLKDCPTGRITQQQFQSIYAKFFPDTDPKAYAQHVFRSFDSNLDGTLDFKEYVIALHMTTAGKTNQKLEWAFSLYDVDGNGTISKNEVLEIVMAIFKMITPEDVKLLPDDENTPEKRAEKIWKYFGKNDDDKLTEKEFIEGTLANKEILRLIQFEPQKVKEKMKNA	not failed
GSSILDRAVIEHNLLSASKLYNNITFEELGALLEIPAAKAEKIASQMITEGRMNGFIDQIDGIVHFETREA	not failed
GTGTQPTIVIGGFVPDATEAVEFQRELFRRHGSVYYLNYARHGFSVEMFFAQLADLVEDLNRRGEKPVIFAISFGCSLLSRFLRERYSGEGLTVGGIVMTSP	failed
GVLILHGFTANLESVRALFGPLGRFDLKMATPLLRGHGAASPDELRGVTWREWLDDAENAFETLTGTGGKAVVIGHSMGALLALQLAARRPELVDSVILATPPVRLTSPLGPGRPLHFLAPLVSHVVDRWDMEARFADPGSAIIPKQYDWAPTKTILSMFELLEETMRITGRVRVPALILQARHESVVLPESAEILTRAIATPPEAKSIVWFDKTDHQIFCDCERKAAVDAVVSFVSKRFP	failed
HGILIRSSAFLEELADLTSLVVDKTGTLTHGSLRLQALRLADAAEEASVLRLAASLGAASSHPVSRALAALAAHDAYHPLSDIRERQGFGVVARTAAGEAALGRPELFQQLGIDASEVPEHEGPIAGIALDGRFLGWLLLADSVRAEAAEALADLRELGLGRQLLLTGDRRAVADAVAKQVGIRQLVAQALPEDKLRQVGAEIGSGFRPMVVGDGINDSLALKAGVVGVAMGAGGADIALASADIVLIGSDLRRLGTCVRLSR	failed
HSGEDLPMVAPGNVRVNVVNSTLAEVHWDPVPLKSIRGHLQGYRIYYWKTQSSSKRNRRHIEKKILTFQGSKTHGMLPGLEPFSHYTLNVRVVNGKGEGPASPDRVFNTPEG	not failed
HVLYSNILNRDVTISIYLPESYNQLVKYNVILCFDGLDFLRFGRIQRTYESLIKEARIDDAIIVGFHYEDVDKRREEFHPQGSRSHLTIQSVGKEILPFIDSTFSTLKVGNARLLVGDSLAGSIALLTALTYPTIFSRVAMLSPHSDDKVLDKLNQCANKEQLTIWHVIGLDEKDFTLPTNGKRADFLTPNRELAEQIKKYNITYYYDEFEGGHQWKDWKPLLSDILLYFLRKNTDDQHYE	failed
HVQLSLPVLQVRDVLVRGFGDSVEEALSEAREHLKNGTCGLVELEKGVLPQLEQPYVFIKRSDALSTNHGHKVVELVAEMDGIQYGRSGITLGVLVPHVGETPIAYRNVLLRKNG	not failed
